Experimental data from US20200048612.

Target: Histone H3 trimethylated at lysine 27 (H3K27me3), nucleosomal, in human ES cells

Protein	H3K27me3 level by immunostaining and immunoblotting, 8 hours after introduction of synthetic mRNA into hESCs	H3K27me3 level after doxycycline-induced expression in JMJD3c-hESCs
HA-tagged full-length JMJD3 (protein) MHRAVDPPGARAAREAFALGGLSCAGAWSSCPPHPPPRSAWLPGGRCSASIGQPPLPAPLPPSHGSSSGHPSKPYYAPGAPTPRPLHGKLESLHGCVQALLREPAQPGLWEQLGQLYESEHDSEEATRCYHSALRYGGSFAELGPRIGRLQQAQLWNFHTGSCQHRAKVLPPLEQVWNLLHLEHKRNYGAKRGGPPVKRAAEPPVVQPVPPAALSGPSGEEGLSPGGKRRRGCNSEQTGLPPGLPLPPPPLPPPPPPPPPPPPPLPGLATSPPFQLTKPGLWSTLHGDAWGPERKGSAPPERQEQRHSLPHPYPYPAPAYTAHPPGHRLVPAAPPGPGPRPPGAESHGCLPATRPPGSDLRESRVQRSRMDSSVSPAATTACVPYAPSRPPGLPGTTTSSSSSSSSNTGLRGVEPNPGIPGADHYQTPALEVSHHGRLGPSAHSSRKPFLGAPAATPHLSLPPGPSSPPPPPCPRLLRPPPPPAWLKGPACRAAREDGEILEELFFGTEGPPRPAPPPLPHREGFLGPPASRFSVGTQDSHTPPTPPTPTTSSSNSNSGSHSSSPAGPVSFPPPPYLARSIDPLPRPPSPAQNPQDPPLVPLTLALPPAPPSSCHQNTSGSFRRPESPRPRVSFPKTPEVGPGPPPGPLSKAPQPVPPGVGELPARGPRLFDFPPTPLEDQFEEPAEFKILPDGLANIMKMLDESIRKEEEQQQHEAGVAPQPPLKEPFASLQSPFPTDTAPTTTAPAVAVTTTTTTTTTTTATQEEEKKPPPALPPPPPLAKFPPPSQPQPPPPPPPSPASLLKSLASVLEGQKYCYRGTGAAVSTRPGPLPTTQYSPGPPSGATALPPTSAAPSAQGSPQPSASSSSQFSTSGGPWARERRAGEEPVPGPMTPTQPPPPLSLPPARSESEVLEEISRACETLVERVGRSATDPADPVDTAEPADSGTERLLPPAQAKEEAGGVAAVSGSCKRRQKEHQKEHRRHRRACKDSVGRRPREGRAKAKAKVPKEKSRRVLGNLDLQSEEIQGREKSRPDLGGASKAKPPTAPAPPSAPAPSAQPTPPSASVPGKKAREEAPGPPGVSRADMLKLRSLSEGPPKELKIRLIKVESGDKETFIASEVEERRLRMADLTISHCAADVVRASRNAKVKGKFRESYLSPAQSVKPKINTEEKLPREKLNPPTPSIYLESKRDAFSPVLLQFCTDPRNPITVIRGLAGSLRLNLGLFSTKTLVEASGEHTVEVRTQVQQPSDENWDLTGTRQIWPCESSRSHTTIAKYAQYQASSFQESLQEEKESEDEESEEPDSTTGTPPSSAPDPKNHHIIKFGTNIDLSDAKRWKPQLQELLKLPAFMRVTSTGNMLSHVGHTILGMNTVQLYMKVPGSRTPGHQENNNFCSVNINIGPGDCEWFAVHEHYWETISAFCDRHGVDYLTGSWWPILDDLYASNIPVYRFVQRPGDLVWINAGTVHWVQATGWCNNIAWNVGPLTAYQYQLALERYEWNEVKNVKSIVPMIHVSWNVARTVKISDPDLFKMIKFCLLQSMKHCQVQRESLVRAGKKIAYQGRVKDEPAYYCNECDVEVFNILFVTSENGSRNTYLVHCEGCARRRSAGLQGVVVLEQYRTEELAQAYDAFTLVRARRARGQRRRALGQAAGTGFGSPAAPFPEPPPAFSPQAPASTSR	the introduction of the JMJD3c mRNA induced a more significant decrease in H3K27me3 as compared to the JMJD3f mRNA	–
HA-tagged JMJD3c (catalytic domain-containing C-terminus of JMJD3) (protein) QSEEIQGREKSRPDLGGASKAKPPTAPAPPSAPAPSAQPTPPSASVPGKKAREEAPGPPGVSRADMLKLRSLSEGPPKELKIRLIKVESGDKETFIASEVEERRLRMADLTISHCAADVVRASRNAKVKGKFRESYLSPAQSVKPKINTEEKLPREKLNPPTPSIYLESKRDAFSPVLLQFCTDPRNPITVIRGLAGSLRLNLGLFSTKTLVEASGEHTVEVRTQVQQPSDENWDLTGTRQIWPCESSRSHTTIAKYAQYQASSFQESLQEEKESEDEESEEPDSTTGTPPSSAPDPKNHHIIKFGTNIDLSDAKRWKPQLQELLKLPAFMRVTSTGNMLSHVGHTILGMNTVQLYMKVPGSRTPGHQENNNFCSVNINIGPGDCEWFAVHEHYWETISAFCDRHGVDYLTGSWWPILDDLYASNIPVYRFVQRPGDLVWINAGTVHWVQATGWCNNIAWNVGPLTAYQYQLALERYEWNEVKNVKSIVPMIHVSWNVARTVKISDPDLFKMIKFCLLQSMKHCQVQRESLVRAGKKIAYQGRVKDEPAYYCNECDVEVFNILFVTSENGSRNTYLVHCEGCARRRSAGLQGVVVLEQYRTEELAQAYDAFTLVRARRARGQRRRALGQAAGTGFGSPAAPFPEPPPAFSPQAPASTSR	the introduction of the JMJD3c mRNA induced a more significant decrease in H3K27me3 as compared to the JMJD3f mRNA	Dox treatment (1 µg/ml) induced HA-JMJD3c expression and a significant decrease in H3K27me3 in all hESCs
